{"source": "paper PMC3236736", "about": "“Jamb and Jamc Are Essential for Vertebrate Myocyte Fusion” (PLoS Biology, 2011)", "binders": {"B1": {"name": "Jamc extracellular domain fused to rat Cd4 domains 3 and 4 (Jamc-Cd4d3+4-6H; Jamc-Cd4d3+4-bio) (domain or fragment, zebrafish, UniProt A3KPA0 24-235, looked up)", "chain": "VLLKSTNSKPWVNEFESIELSCMIESITTTKPRIEWKKIKNGDPSYVYFDNQISGDLERRAKIREPATLVILNATRSDSADYRCEVTAPNDQKSFDEILISLTVRVKPVVPRCSVPKSIPVGKPAELHCLEDEGYPKSQYQWFRNKEEIPLDPKSSPKFFNSTYTLDGEMGTLKFSAVRKEDAGEYYCRAKNEAGISECGPQMMEVYDINIA", "notes": "Jamc (official symbol jam3b), zebrafish, Entrez Gene 569217; Two forms with the same ectodomain were made; They are written as one molecule because the protein stood against itself in the homophilic test; also called Jam3b; zebrafish JAM-C orthologue; source: expressed as a soluble fusion protein, purified; not shown: rat Cd4 domains 3 and 4, C-terminal, kept; His6, C-terminal, kept"}, "B2": {"name": "Jamb extracellular domain fused to rat Cd4 domains 3 and 4 (Jamb-Cd4d3+4-6H; Jamb-Cd4d3+4-bio) (domain or fragment, zebrafish, UniProt A0A0R4IGV4 19-226, looked up)", "chain": "VTVSSRNPKVEVHEFSDAELSCEFKTEKDTNPRIEWKRKDKEKDVSFVYYGERFVGPFQDRADIEGATVRLRRVTQADAGEYRCEVSAPSDSISLGETNVTLRVLVPPQTPSCDVPSSALTGSQVELRCRDRHSIPPAVYTWYKDNRALPIRHPNATYTVNEFTGVLIPQSHYNPGTVCQHCMYHPNYHIPNTQLTTTFQTHDLNVAA", "notes": "Jamb (official symbol jam2a), zebrafish, Entrez Gene 100005261; Two forms with the same ectodomain were made; They are written as one molecule because the protein stood against itself in the homophilic test; also called Jam2a; zebrafish JAM-B orthologue; source: expressed as a soluble fusion protein, purified; not shown: rat Cd4 domains 3 and 4, C-terminal, kept; His6, C-terminal, kept"}}, "key": {"[1]": {"target": "B2", "assay": "SPR; dissociation phase averaged over three concentrations of purified Jamc-Cd4d3+4-6H or Jamb-Cd4d3+4-6H analyte, fitted to a first-order decay; homophilic and heterophilic interactions", "conditions": "both partners purified"}, "[2]": {"target": "B1", "assay": "SPR; equilibrium binding analysis with soluble recombinant extracellular domains; Jamc analyte; essentially as in ref. 33", "conditions": "both partners purified"}}}
{"binder": "B1", "values": [{"measurement": "stoichiometry N", "setting": "[1]", "value": 1}]}
{"binder": "B2", "values": [{"measurement": "Kd", "setting": "[2]", "value": "~4.7", "unit": "µM"}]}
